The values below come from patent US20240415884A1.

This assay concerns the target T1, CD276 expressed on cells (Du145, PC3, CD276+ 293T, CHO-K1-CD276-Luci cells) (human) (UniProt Q5ZPR3).
T1 sequence (looked up): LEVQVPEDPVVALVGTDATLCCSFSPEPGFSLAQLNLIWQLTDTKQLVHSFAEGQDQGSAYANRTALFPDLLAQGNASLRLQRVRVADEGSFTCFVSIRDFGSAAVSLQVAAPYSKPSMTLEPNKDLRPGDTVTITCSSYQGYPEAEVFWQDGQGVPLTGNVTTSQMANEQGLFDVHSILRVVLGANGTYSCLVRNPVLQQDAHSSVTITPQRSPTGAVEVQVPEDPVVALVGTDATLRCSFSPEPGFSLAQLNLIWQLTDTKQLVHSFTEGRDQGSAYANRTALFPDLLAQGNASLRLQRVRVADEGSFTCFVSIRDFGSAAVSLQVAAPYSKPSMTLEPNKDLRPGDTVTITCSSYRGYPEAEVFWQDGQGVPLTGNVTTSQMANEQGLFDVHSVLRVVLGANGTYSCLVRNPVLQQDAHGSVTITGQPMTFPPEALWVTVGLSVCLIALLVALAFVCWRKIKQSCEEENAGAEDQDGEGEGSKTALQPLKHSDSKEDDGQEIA

B1: BiTE #5 (bispecific antibody, part only; not given: anti-CD3 scFv, part only)
chain, part: EVQLVESGGGLVQPGGSLRLSCAASPFPFTIYEMSWVRQASGKALEWIGYINHSGSTNYNPSLKSRVTISRDNSKNTLYLQMNSLRAEDTAMYYCAILAPDYWGQGTLVTVSSGGGGSGGGGSGGGGS
Regarding B1, the EC50 (read off the curve), percent lysis amounted to 8 nM.
